Legend:
cynomolgus PDGF-BB [1] = biological target: T1, cynomolgus PDGF-BB (cynomolgus, UniProt A0A2K5UX81 82-190, Disulfide-linked homodimer of two identical B chains; one copy is given.); test: ELISA, cynomolgus PDGF-BB (Example 10)
T1 construct: also called cynPDGF-BB

rat PDGF-BB = rat PDGF-BB (rat, UniProt Q05028 74-182); test: ELISA, immobilized rat PDGF-BB (Example 12)
Protocol: (§1) The binding analysis was carried out using an enzyme-linked immunosorbent assay (ELISA)-based technology. The antigen rat PDGF-BB (R&D, 520-BB) was immobilized at a concentration of 125 ng/mL in 25 μL in PBS, 0.5% BSA and 0.05% Tween on a 384 well microtiter plate (Thermo Scientific, Cat. No. 464718). Every of the following steps was followed by a washing routine of 3 times 90 μL PBS, 0.5% BSA, 0.05 Tween with dispense and aspiration: 1) blocking step: saturating unbound surface (1 hour, 2% BSA); 2) anti-PDGF-BB antibody in increasing concentrations for 1 hour; 3) detection antibody, dilution=1:3000 (ECL anti-rabbit IgG-POD, NA9340V+ECL anti-human IgG-POD, NA933V or alternatively for murine antibodies ECL anti-mouse IgG-POD; NA 9310V). 20-30 min. after adding the substrate 3,3′,5,5′-tetramethylbenzidine (TMB, Piercenet, Cat. No. 34021) the optical density was determined at 370 nm. The EC₅₀ was calculated with a four parameter logistic model using GraphPad Prism 6.0 software.

human PDGF-BB [2] = biological target: T2, human PDGF-BB (human, UniProt P01127 82-190); test: ELISA, immobilized human PDGF-BB (Example 9)
T2 construct: Bought recombinant protein (Cell Signaling 8921BF or R&D Systems 220-BB); also called huPDGF-BB; recombinant human PDGF-BB
T2 sequence (P01127 82-190 limits assumed): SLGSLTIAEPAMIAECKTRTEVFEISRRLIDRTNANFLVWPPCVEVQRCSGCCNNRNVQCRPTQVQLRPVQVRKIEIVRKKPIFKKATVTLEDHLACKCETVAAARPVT
Protocol: as §1, with “antigen human” for “antigen rat”, “PDGF-BB (Cell Signaling, Cat. No 8921BF)” for “PDGF-BB (R&D, 520-BB)”, “μL PBS” for “μL PBS, 0.5% BSA, 0.05 Tween”

human PDGF-BB [3] = biological target: T2, human PDGF-BB; test: SPR, IgG on immobilized human PDGF-BB (Example 17)
Protocol: (§2) The binding analysis was carried out using a surface plasmon resonance spectroscopy-based technology applying a BIAcore B4000 system (GE Healthcare). The antigen human PDGF-BB (Cell Signaling, Cat. No. 8921BF) was immobilized at a concentration of 1 μg/mL in PBS, 0.1% BSA, 0.05 Tween using amine coupling chemistry on a C1 sensor chip (GE Healthcare, Cat. No. BR-1005-35). Anti-PDGF-BB antibody in increasing concentrations was applied in 10 mM HEPES pH 7.2, 150 mM NaCl. Utilizing a read out time of 180 sec. association phase and 600 sec. dissociation phase the apparent kₐ and apparent kd were calculated. The apparent KD (avidity) was calculated using the BIAcore T200 v2.0 fitting software.

human PDGF-BB [4] = biological target: T2, human PDGF-BB; test: SPR, apparent KD (avidity), IgG on immobilized human PDGF-BB (Example 17)
Protocol: as §2

cynomolgus PDGF-BB [5] = biological target: T1, cynomolgus PDGF-BB; test: SPR, apparent KD (avidity), IgG on immobilized cynomolgus PDGF-BB (Example 18)
Protocol: as §2, with “cynomolgus” for “human”, “PDGF-BB” for “PDGF-BB (Cell Signaling, Cat. No. 8921BF)”, “0.05%” for “0.05”

Sequence of rat PDGF-BB (Q05028 74-182): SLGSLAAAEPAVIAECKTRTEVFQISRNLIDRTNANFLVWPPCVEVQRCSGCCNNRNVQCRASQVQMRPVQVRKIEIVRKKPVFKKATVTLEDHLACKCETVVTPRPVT
T1 sequence (A0A2K5UX81 entry or part of it limits assumed): as the sequence (P01127 82-190 limits assumed) above, with I7V counted along it

Row | Binder | EC50 (cynomolgus PDGF-BB [1]) [µg/mL] | EC50 (rat PDGF-BB) [µg/mL] | EC50 (human PDGF-BB [2]) [µg/mL] | koff (human PDGF-BB [3]) [s⁻¹] | kon (human PDGF-BB [3]) [M⁻¹ s⁻¹] | Kd (human PDGF-BB [4]) [nM] | Kd (cynomolgus PDGF-BB [5]) [nM]
1 | antibody 0058 (antibody, V domains shown, Human antibody from a human Ig locus transgenic rabbit; IgG) VH: EVQLVESGGGLVQPGGSLRLSCAASGFTFSSFWMTWVRQAPGKGLEWVASISAGGGITHYPDSVKDRFTVSRDNAKNSLYLQLNSLRAEDTAVYYCAESGGDIYSDFDYWGQGTLVTVSS VL: not shown | 0.0034 | 0.0966 | 0.0401 | 0.00011 | 1.8e+06 | 0.062 | 0.0288
2 | antibody 0060 (antibody, V domains shown, Human antibody from a human Ig locus transgenic rabbit; IgG) VH: EVQLLESGGDLVQPGGSLRLSCAASGFTFRSYAMSWVRQAPGKGLEWVSGISAGGGYIYYADSVTGRFTSSRDNYKNTLYLQMNRLRVEDTAVYYCARFYPGYNSDTYYYDGMDVWGQGTTVTVSS VL: not shown | 0.0415 | 0.11 | 0.0375 | 2.9e-05 | 370000 | 0.0782 | < 0.0303
3 | antibody 0064 (antibody, V domains shown, Human antibody from a human Ig locus transgenic rabbit; IgG) VH: EVQLVESGGGLVQPGGSLRLSCAASGFTFSSYWMSWVRQAPGKGLEWVSTISDGGGTTSYADSVKGRFTISRDNSKNTLYLQMNSLRAEDTAVYSCAESGGATDYLFDYWGQGTLVTVSS VL: not shown | 0.00741 | 0.00369 | 0.016 | 5.5e-05 | 720000 | 0.0769 | 0.0596

— US20170247440A1 (Hoffmann-La Roche, published 2017)
